According to patent US20170267764A1 (INNATE PHARMA, published 2017):

T1: human MICA allele MICA*001 (human, UniProt Q29983 24-297)
T1 construct: Expressed on transfected C1R cells; also called MICA*01; C1R-MICA*001
T1 sequence: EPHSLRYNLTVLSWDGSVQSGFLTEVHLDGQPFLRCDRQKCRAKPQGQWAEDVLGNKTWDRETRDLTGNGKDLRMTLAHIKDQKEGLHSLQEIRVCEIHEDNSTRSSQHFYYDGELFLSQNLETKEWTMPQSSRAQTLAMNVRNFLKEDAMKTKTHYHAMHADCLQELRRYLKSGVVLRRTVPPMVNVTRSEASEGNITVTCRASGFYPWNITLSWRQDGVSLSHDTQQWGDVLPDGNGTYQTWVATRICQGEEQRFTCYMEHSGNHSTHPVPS

T2: human MICA allele MICA*004 (human, UniProt Q29983 24-297)
T2 construct: Expressed on transfected C1R cells; also called MICA*04; C1R-MICA*004
T2 chain: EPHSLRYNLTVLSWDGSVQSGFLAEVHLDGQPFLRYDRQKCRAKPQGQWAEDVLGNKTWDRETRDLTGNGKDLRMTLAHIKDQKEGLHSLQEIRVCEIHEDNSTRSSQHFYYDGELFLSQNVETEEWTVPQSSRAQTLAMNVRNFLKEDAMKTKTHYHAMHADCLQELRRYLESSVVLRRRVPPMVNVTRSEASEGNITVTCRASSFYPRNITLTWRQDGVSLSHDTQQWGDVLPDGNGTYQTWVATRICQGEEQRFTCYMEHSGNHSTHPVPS

T3: human MICA allele MICA*007 (human, UniProt Q29983 24-297)
T3 construct: Expressed on transfected C1R cells; also called MICA*07; C1R-MICA*007
T3 chain: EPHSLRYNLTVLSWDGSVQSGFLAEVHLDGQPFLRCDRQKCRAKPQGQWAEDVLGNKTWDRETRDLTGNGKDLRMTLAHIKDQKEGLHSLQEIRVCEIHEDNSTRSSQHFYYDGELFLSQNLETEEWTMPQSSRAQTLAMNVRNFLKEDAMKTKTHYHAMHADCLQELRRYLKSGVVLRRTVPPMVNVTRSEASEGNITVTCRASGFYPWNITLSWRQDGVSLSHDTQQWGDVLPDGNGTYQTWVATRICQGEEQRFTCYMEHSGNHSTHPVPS

T4: human MICA allele MICA*008 (human, UniProt Q29983 24-297)
T4 construct: Expressed on transfected C1R cells; also called MICA*08; C1R-MICA*008
T4 chain: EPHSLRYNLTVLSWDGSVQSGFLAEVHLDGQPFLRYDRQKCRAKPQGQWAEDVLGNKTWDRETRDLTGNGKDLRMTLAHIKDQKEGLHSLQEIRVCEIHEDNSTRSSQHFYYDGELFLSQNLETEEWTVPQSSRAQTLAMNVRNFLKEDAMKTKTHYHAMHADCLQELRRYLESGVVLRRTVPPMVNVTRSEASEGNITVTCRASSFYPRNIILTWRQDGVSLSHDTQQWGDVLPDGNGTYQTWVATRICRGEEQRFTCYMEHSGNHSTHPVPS


Assays:
[1] = target: T1, human MICA allele MICA*001; experiment: flow cytometry, C1R-MICA*001 transfectant cells
Procedure: (§1) The binding of the antibodies in Table 2 of Example 1 were tested for binding to MICA-expressing C1R transfectant cells (ATCC reference CRL-1993™) transfected with RSV.5neo vectors (GenBank (NCBI) under Accession number M83237), as described in Salih et al. (2003) Blood 102(4): […], referred to as C1R-MICA*001, C1R-MICA*004, C1R-MICA*007 and C1R-MICA*008. Binding was analyzed by flow cytometry.
(§2) Cells were harvested and stained in PBS 1×/BSA 0.2%/EDTA 2 mM buffer during 30 minutes at 4° C. using a dose-range of the anti-MICA mAbs. After two washes in staining buffer, cells were stained for 30 min at 4° C. with mouse anti-human IgG1-PE monoclonal antibodies (1/11). After two washes, stainings were acquired on a BD FACS Canto II and analyzed using the FlowJo software.

[2] = target: T2, human MICA allele MICA*004; experiment: flow cytometry, C1R-MICA*004 transfectant cells
Procedure: as §1, §2

[3] = target: T3, human MICA allele MICA*007; experiment: flow cytometry, C1R-MICA*007 transfectant cells
Procedure: as §1, §2

[4] = target: T4, human MICA allele MICA*008; experiment: flow cytometry, C1R-MICA*008 transfectant cells
Procedure: as §1, §2

[5] = target: T1, human MICA allele MICA*001; experiment: flow cytometry, C1R-MICA*001 transfectant cells; reference: parental antibody
Procedure: as §1, §2

[6] = target: T4, human MICA allele MICA*008; experiment: cell-based or functional assay
[7] = target: T1, human MICA allele MICA*001; experiment: cell-based or functional assay

Binder | EC50 [1] [µg/mL] | EC50 [2] [µg/mL] | EC50 [3] [µg/mL] | EC50 [4] [µg/mL] | fold improvement in affinity compared to the parental antibody [5] [fold] | EC50 (read off the curve), ADCC % specific lysis [panel C1R MICA*008] [6] [µg/mL] | EC50 (read off the curve), ADCC % specific lysis [panel C1R MICA*001] [7] [µg/mL]
mAb4 (antibody, V domains shown, Produced in CHO cells as human IgG1 with huCk constant domain) VH: QVQLQESGPGLVKPSETLSLTCTVSGYSITSDYAWNWIRQPPGKGLEWMGFVSYSGTTKYNPSLKSRVTISRDTSKNQFSLKLSSVTAADTAVYYCARGYGFDYWGQGTTVTVSS VL: EIVLTQSPATLSLSPGERATLSCSATSSISSIYFHWYQQKPGQAPRLLIYRTSNLASGIPARFSGSGSGTDYTLTISSLEPEDFAVYYCQQGTTIPFTFGQGTKLEIK | 0.316 | 0.063 | 0.0875 | 0.0859 | – | – | –
mAb6 (antibody, V domains shown, Produced in CHO cells as human IgG1 with huCk constant domain) VH: QVQLQESGPGLVKPSETLSLTCTVSGYSITSDYAWNWIRQPPGKGLEWMGFVSYSGTTKYNPSLKSRVTISRDTSKNQFSLKLSSVTAADTAVYYCARGYGFDYWGQGTTVTVSS VL: EIVLTQSPATLSLSPGERATLSCSATSSISSIYFHWYQQKPGQAPRLLIYRTSNLASGIPARFSGSGSGTDYTLTISSLEPEDVAVYYCQQGTTIPFTFGQGTKLEIK | 0.407 | 0.0838 | 0.0718 | 0.0953 | – | – | –
mAb1 (antibody, V domains shown, Produced in CHO cells as human IgG1 with huCk constant domain; also called anti-MICA mAb1; anti-MICA antibody mAb1) VH: QVQLQESGPGLVKPSETLSLTCTVSGYSITSDYAWNWIRQPPGKGLEWIGFVSYSGTTKYNPSLKSRVTISRDTSKNQFSLKLSSVTAADTAVYYCARGYGFDYWGQGTTVTVSS VL: EIVLTQSPATLSLSPGERATLSCSATSSISSIYFHWYQQKPGQAPRLLIYRTSNLASGIPARFSGSGSGTDYTLTISSLEPEDFAVYYCQQGTTIPFTFGQGTKLEIK | 0.184 | 0.0417 | 0.033 | 0.0612 | 2.4 | ~0.0002 | ~0.003
mAb12 (antibody, V domains shown, Produced in CHO cells as human IgG1 with huCk constant domain) VH: QVQLQESGPGLVKPSETLSLTCTVSGYSITSDYAWNWIRQPPGKGLEWMGFVSYSGTTKYNPSLKSRITISRDTSENQFSLKLSSVTAADTAVYYCARGYGFDYWGQGTTVTVSS VL: EIVLTQSPATLSLSPGERATLSCSATSSISSIYFHWYQQKPGQAPRLLIYRTSNLASGIPARFSGSGSGTDYTLTISSLEPEDVAVYYCQQGTTIPFTFGQGTKLEIK | 0.453 | 0.0672 | 0.086 | 0.0642 | – | – | –
mAb8 (antibody, V domains shown, Produced in CHO cells as human IgG1 with huCk constant domain) VH: QVQLQESGPGLVKPSETLSLTCTVSGYSITSDYAWNWIRQPPGKGLEWMGFVSYSGTTKYNPSLKSRVTISRDTSENQFSLKLSSVTAADTAVYYCARGYGFDYWGQGTTVTVSS VL: EIVLTQSPATLSLSPGERATLSCSATSSISSIYFHWYQQKPGQAPRLLIYRTSNLASGIPARFSGSGSGTSYTLTISSLEPEDFAVYYCQQGTTIPFTFGQGTKLEIK | 0.191 | 0.0481 | 0.0462 | 0.0551 | – | – | –
mAb2 (antibody, V domains shown, Produced in CHO cells as human IgG1 with huCk constant domain) VH: QVQLQESGPGLVKPSETLSLTCTVSGYSITSDYAWNWIRQPPGKGLEWIGFVSYSGTTKYNPSLKSRVTISRDTSKNQFSLKLSSVTAADTAVYYCARGYGFDYWGQGTTVTVSS VL: EIVLTQSPATLSLSPGERATLSCSATSSISSIYFHWYQQKPGQAPRLLIYRTSNLASGIPARFSGSGSGTSYTLTISSLEPEDFAVYYCQQGTTIPFTFGQGTKLEIK | 0.151 | 0.0381 | 0.0502 | 0.0699 | ~3 | – | –
mAb5 (antibody, V domains shown, Produced in CHO cells as human IgG1 with huCk constant domain) VH: QVQLQESGPGLVKPSETLSLTCTVSGYSITSDYAWNWIRQPPGKGLEWMGFVSYSGTTKYNPSLKSRVTISRDTSKNQFSLKLSSVTAADTAVYYCARGYGFDYWGQGTTVTVSS VL: EIVLTQSPATLSLSPGERATLSCSATSSISSIYFHWYQQKPGQAPRLLIYRTSNLASGIPARFSGSGSGTSYTLTISSLEPEDFAVYYCQQGTTIPFTFGQGTKLEIK | 0.318 | 0.0762 | 0.0493 | 0.0958 | – | – | –
mAb7 (antibody, V domains shown, Produced in CHO cells as human IgG1 with huCk constant domain) VH: QVQLQESGPGLVKPSETLSLTCTVSGYSITSDYAWNWIRQPPGKGLEWMGFVSYSGTTKYNPSLKSRVTISRDTSENQFSLKLSSVTAADTAVYYCARGYGFDYWGQGTTVTVSS VL: EIVLTQSPATLSLSPGERATLSCSATSSISSIYFHWYQQKPGQAPRLLIYRTSNLASGIPARFSGSGSGTDYTLTISSLEPEDFAVYYCQQGTTIPFTFGQGTKLEIK | 0.288 | 0.0616 | 0.0668 | 0.0871 | – | – | –
mAb11 (antibody, V domains shown, Produced in CHO cells as human IgG1 with huCk constant domain) VH: QVQLQESGPGLVKPSETLSLTCTVSGYSITSDYAWNWIRQPPGKGLEWMGFVSYSGTTKYNPSLKSRITISRDTSENQFSLKLSSVTAADTAVYYCARGYGFDYWGQGTTVTVSS VL: EIVLTQSPATLSLSPGERATLSCSATSSISSIYFHWYQQKPGQAPRLLIYRTSNLASGIPARFSGSGSGTSYTLTISSLEPEDFAVYYCQQGTTIPFTFGQGTKLEIK | 0.32 | 0.0614 | 0.0513 | 0.0789 | – | – | –
mAb10 (antibody, V domains shown, Produced in CHO cells as human IgG1 with huCk constant domain) VH: QVQLQESGPGLVKPSETLSLTCTVSGYSITSDYAWNWIRQPPGKGLEWMGFVSYSGTTKYNPSLKSRITISRDTSENQFSLKLSSVTAADTAVYYCARGYGFDYWGQGTTVTVSS VL: EIVLTQSPATLSLSPGERATLSCSATSSISSIYFHWYQQKPGQAPRLLIYRTSNLASGIPARFSGSGSGTDYTLTISSLEPEDFAVYYCQQGTTIPFTFGQGTKLEIK | 0.307 | 0.0631 | 0.0498 | 0.144 | – | – | –
mAb9 (antibody, V domains shown, Produced in CHO cells as human IgG1 with huCk constant domain) VH: QVQLQESGPGLVKPSETLSLTCTVSGYSITSDYAWNWIRQPPGKGLEWMGFVSYSGTTKYNPSLKSRVTISRDTSENQFSLKLSSVTAADTAVYYCARGYGFDYWGQGTTVTVSS VL: EIVLTQSPATLSLSPGERATLSCSATSSISSIYFHWYQQKPGQAPRLLIYRTSNLASGIPARFSGSGSGTDYTLTISSLEPEDVAVYYCQQGTTIPFTFGQGTKLEIK | 0.318 | 0.0438 | 0.0519 | 0.0515 | – | – | –
mAb3 (antibody, V domains shown, Produced in CHO cells as human IgG1 with huCk constant domain) VH: QVQLQESGPGLVKPSETLSLTCTVSGYSITSDYAWNWIRQPPGKGLEWIGFVSYSGTTKYNPSLKSRVTISRDTSKNQFSLKLSSVTAADTAVYYCARGYGFDYWGQGTTVTVSS VL: EIVLTQSPATLSLSPGERATLSCSATSSISSIYFHWYQQKPGQAPRLLIYRTSNLASGIPARFSGSGSGTDYTLTISSLEPEDVAVYYCQQGTTIPFTFGQGTKLEIK | 0.265 | 0.0608 | 0.0612 | 0.0822 | – | – | –
